From IntAct's records for PubMed 25710501

B1: Granule-bound starch synthase 1, chloroplastic/amyloplastic (Arabidopsis thaliana (Mouse-ear cress)), Q9MAQ0 (parent)
chain: MATVTASSNFVSRTSLFNNHGASSCSDVAQITLKGQSLTHCGLRSFNMVDNLQRRSQAKPVSAKSSKRSSKVKTAGKIVCEKGMSVIFIGAEVGPWSKTGGLGDVLGGLPPALAARGHRVMTICPRYDQYKDAWDTCVVVQIKVGDKVENVRFFHCYKRGVDRVFVDHPIFLAKVVGKTGSKIYGPITGVDYNDNQLRFSLLCQAALEAPQVLNLNSSKYFSGPYGEDVVFVANDWHTALLPCYLKSMYQSRGVYMNAKVVFCIHNIAYQGRFAFDDYSLLNLPISFKSSFDFMDGYEKPVKGRKINWMKAAILEAHRVLTVSPYYAQELISGVDRGVELHKYLRMKTVSGIINGMDVQEWNPSTDKYIDIKYDITTVTDAKPLIKEALQAAVGLPVDRDVPVIGFIGRLEEQKGSDILVEAISKFMGLNVQMVILGTGKKKMEAQILELEEKFPGKAVGVAKFNVPLAHMITAGADFIIVPSRFEPCGLIQLHAMRYGTVPIVASTGGLVDTVKDGYTGFHIGRFNVKCEVVDPDDVIATAKAVTRAVAVYGTSAMQEMVKNCMDQDFSWKGPARLWEKVLLSLNVAGSEAGTEGEEIAPLAKENVATP
partner: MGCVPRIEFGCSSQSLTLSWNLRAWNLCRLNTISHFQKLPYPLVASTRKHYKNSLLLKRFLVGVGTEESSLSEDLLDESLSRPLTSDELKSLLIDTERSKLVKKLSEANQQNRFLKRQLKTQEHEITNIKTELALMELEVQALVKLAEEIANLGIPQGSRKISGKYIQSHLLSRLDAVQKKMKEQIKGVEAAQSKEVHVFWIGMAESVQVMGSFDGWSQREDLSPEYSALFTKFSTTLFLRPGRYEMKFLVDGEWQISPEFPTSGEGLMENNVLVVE

Variants of: B1
Conditions: with ptst_arath PTST

Variant | effect of a mutation on the interaction
K441E | decreasing interaction strength
K441E;E452K | disrupting interaction strength

Continued, values first:

effect of a mutation on the interaction | Variant
decreasing interaction strength | E449K
disrupting interaction strength | E452K

Variants of: B1
Conditions: with ptst_arath PTST
Remark: another data set of the same source

effect of a mutation on the interaction | Variant
decreasing interaction strength | K441E;E452K
decreasing interaction strength | E452K
